These results are taken from paper PMC11587196 (Cell reports, 2024).

Holding throughout (assay): SPR
Background: Surface plasmon resonance follows binding to a sensor surface in real time, without labels.

For assay [1], the target named is IL-1 receptor accessory protein (IL-1RAcP) ectodomain (Homo sapiens (Human)., UniProt Q9NPH3, glycosylated (seven putative glycosylation sites)).
The target in assay [2] is IL-1RAcP domain 1/2 (Homo sapiens, UniProt Q9NPH3).
Assay [3] has as its target IL-1RAcP domain 3 (Homo sapiens, UniProt Q9NPH3).
The target in assay [4] is Fc-fused IL-1RAcP Y249A (Homo sapiens, UniProt Q9NPH3, Y249A).
Chain of Fc-fused IL-1RAcP Y249A (Q9NPH3 21-367 Y269A): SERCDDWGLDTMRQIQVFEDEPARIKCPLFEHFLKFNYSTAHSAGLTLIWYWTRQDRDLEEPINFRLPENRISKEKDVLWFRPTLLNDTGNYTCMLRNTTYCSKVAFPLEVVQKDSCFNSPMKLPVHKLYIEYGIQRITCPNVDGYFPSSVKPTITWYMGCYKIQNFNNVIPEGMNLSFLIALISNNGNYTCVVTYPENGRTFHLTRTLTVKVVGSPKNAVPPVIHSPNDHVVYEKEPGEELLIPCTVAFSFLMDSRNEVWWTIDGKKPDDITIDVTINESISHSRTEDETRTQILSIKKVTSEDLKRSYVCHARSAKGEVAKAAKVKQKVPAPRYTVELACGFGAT
The target in assay [5] is Fc-fused IL-1RAcP R286A (Homo sapiens, UniProt Q9NPH3, R286A).
Chain of Fc-fused IL-1RAcP R286A (Q9NPH3 21-367 R306A): as the sequence (Q9NPH3 21-367 Y269A) above, with A249Y, R286A counted along it
Assay [6] concerns the target Fc-fused IL-1RAcP V224A (Homo sapiens, UniProt Q9NPH3, V224A).
Assay [7] deals with Fc-fused IL-1RAcP H226A (Homo sapiens, UniProt Q9NPH3, H226A).
Chain of Fc-fused IL-1RAcP H226A (Q9NPH3 21-367 H246A): as the sequence (Q9NPH3 21-367 Y269A) above, with H226A, A249Y counted along it

Chain of IL-1 receptor accessory protein (IL-1RAcP) ectodomain (Q9NPH3 21-367): as the sequence (Q9NPH3 21-367 Y269A) above, with A249Y counted along it
Chain of Fc-fused IL-1RAcP V224A (Q9NPH3 21-367 V244A): as the sequence (Q9NPH3 21-367 Y269A) above, with V224A, A249Y counted along it

B1: 3G5 monoclonal antibody (hIgG1 with Fc-silent LALA mutations) (antibody, V domains shown)
VH: EVQLVESGGVLVKPGGSLKLSCAASGFTFSDYAMSWVRQTPEKRLEWVATITDGGSYAYYTDDVKGRFTVSRDNARNNLFLQMSHLRSEDTGIYYCSRDRWPYYFDFWGRGTTLTVSS
VL: DIQMTQSPTSLSVSVGETVTITCRISENIYSNLAWYQQKEGKSPQLLVYAATKLADGVPSRFSGSGSGTQYSLKINSLQSEDFGNYYCQHFWTTPRTFGGGTKVEIK
In general, Kd refers to the concentration at which binding is half-saturated. Low readings indicate a tighter complex, high ones a looser complex. The term koff denotes a measure of how fast the partners let go of each other. Higher therefore signals fast dissociation. As to B1, in assay [1], the Kd was determined as 0.141 nM and the koff was found to be 0.000225 s⁻¹. In addition, the binding result in assay [2] is recorded as “no binding (tested: 1.25nM to 20nM)”. This molecule registered a Kd in assay [3] of 0.118 nM.

B2: 3G5 Fab (Fab, V domains shown)
VH: B1 VH
VL: B1 VL
B2: the “ΔΔG (change in binding free energy against wild-type IL-1RacP-Fc)” value in assay [4] was 1.85 kcal/mol; in assay [5], 0.3 kcal/mol; in assay [6], 1.3 kcal/mol; in assay [7] it was 2.4 kcal/mol.
